In patent US20240010735A1 (EISAI R AND D MANAGEMENT, published 2024):

What was measured:
Assay in all cases: ELISA: Fc-His proteins (1 nM) captured on anti-6-His antibody, antibody B 10 µg/mL with human IgG 100 µg/mL, HRP anti-human kappa light chain antibody, OD450 as % of mouse EphA4-Fc-His
[1] = target: T1, mouse EphB6 extracellular region-Fc-His protein (mouse; human, UniProt O08644 33-591)
T1 construct: extracellular domain; not shown: Fc region of human IgG1; histidine tag
T1 sequence (looked up): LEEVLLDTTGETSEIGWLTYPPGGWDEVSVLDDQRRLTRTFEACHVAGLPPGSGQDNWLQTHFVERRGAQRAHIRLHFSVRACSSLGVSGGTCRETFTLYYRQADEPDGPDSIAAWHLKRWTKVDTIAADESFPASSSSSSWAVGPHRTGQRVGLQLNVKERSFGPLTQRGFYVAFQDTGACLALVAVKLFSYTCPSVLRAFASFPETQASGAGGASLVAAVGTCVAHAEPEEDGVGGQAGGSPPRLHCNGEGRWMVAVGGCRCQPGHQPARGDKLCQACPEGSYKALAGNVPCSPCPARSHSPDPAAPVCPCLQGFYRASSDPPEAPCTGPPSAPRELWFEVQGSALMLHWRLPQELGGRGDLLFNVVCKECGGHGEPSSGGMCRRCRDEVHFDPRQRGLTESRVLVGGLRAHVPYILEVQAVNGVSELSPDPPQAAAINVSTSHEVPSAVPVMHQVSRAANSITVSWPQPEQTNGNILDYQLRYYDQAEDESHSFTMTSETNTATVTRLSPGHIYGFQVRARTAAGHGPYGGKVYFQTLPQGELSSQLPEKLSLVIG
Procedure: (§1) Rabbit anti-6-His antibodies (Bethyl Laboratories) were coated onto the wells of a 96-well plate (Nunc). After incubating at 4° C. overnight, the wells were blocked at room temperature for 1 hour by 1% Block Ace (DS Pharma Biomedical). After washing 3 times with 0.05% Tween 20/PBS (Thermo […]), each Eph receptor of mouse extracellular region-Fc-His protein (final concentration 1 nM) was seeded into each well, and incubated at room temperature for 1 hour. After washing 3 times, human IgG solution (100 μg/mL, Sigma) and antibody B (10 μg/mL) were supplemented to the wells, and incubated at room temperature for 1 hour. Horseradish peroxidase-labeled goat anti-human Kappa Light Chain antibody (IBL) was added, and incubated at room temperature for 1 hour. After washing 3 times, TMBZ (3,3′,5,5′-tetramethylbenzidine, Sigma) solution was added to the wells, and upon confirmation of modest coloring, an equal amount of quenching solution (1 N H₂SO₄, Wako Pure Chemicals) was added to the wells, and absorbance at 450 nm was read by a microplate reader (PerkinElmer).

[2] = target: T2, mouse EphA10 extracellular region-Fc-His protein (mouse; human, UniProt Q8BYG9 23-565)
T2 construct: extracellular domain; not shown: Fc region of human IgG1; histidine tag
T2 sequence (looked up): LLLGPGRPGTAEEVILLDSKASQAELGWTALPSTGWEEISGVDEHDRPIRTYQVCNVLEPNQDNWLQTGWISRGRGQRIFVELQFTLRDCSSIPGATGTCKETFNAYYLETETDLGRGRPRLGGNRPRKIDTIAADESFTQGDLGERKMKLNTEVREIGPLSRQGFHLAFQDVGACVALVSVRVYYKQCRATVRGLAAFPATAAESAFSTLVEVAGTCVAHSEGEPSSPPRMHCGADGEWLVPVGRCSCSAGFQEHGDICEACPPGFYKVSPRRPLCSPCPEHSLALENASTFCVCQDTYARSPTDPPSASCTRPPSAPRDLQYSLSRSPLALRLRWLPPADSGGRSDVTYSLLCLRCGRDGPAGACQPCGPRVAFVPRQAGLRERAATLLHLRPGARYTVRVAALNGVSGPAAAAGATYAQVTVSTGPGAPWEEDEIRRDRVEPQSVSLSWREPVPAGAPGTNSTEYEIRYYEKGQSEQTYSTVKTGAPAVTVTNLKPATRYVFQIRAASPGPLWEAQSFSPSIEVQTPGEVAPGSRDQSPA
Procedure: as §1

[3] = target: T3, mouse EphA7 extracellular region-Fc-His protein (mouse; human, UniProt Q61772 28-555)
T3 construct: extracellular domain; not shown: Fc region of human IgG1; histidine tag
T3 sequence (looked up): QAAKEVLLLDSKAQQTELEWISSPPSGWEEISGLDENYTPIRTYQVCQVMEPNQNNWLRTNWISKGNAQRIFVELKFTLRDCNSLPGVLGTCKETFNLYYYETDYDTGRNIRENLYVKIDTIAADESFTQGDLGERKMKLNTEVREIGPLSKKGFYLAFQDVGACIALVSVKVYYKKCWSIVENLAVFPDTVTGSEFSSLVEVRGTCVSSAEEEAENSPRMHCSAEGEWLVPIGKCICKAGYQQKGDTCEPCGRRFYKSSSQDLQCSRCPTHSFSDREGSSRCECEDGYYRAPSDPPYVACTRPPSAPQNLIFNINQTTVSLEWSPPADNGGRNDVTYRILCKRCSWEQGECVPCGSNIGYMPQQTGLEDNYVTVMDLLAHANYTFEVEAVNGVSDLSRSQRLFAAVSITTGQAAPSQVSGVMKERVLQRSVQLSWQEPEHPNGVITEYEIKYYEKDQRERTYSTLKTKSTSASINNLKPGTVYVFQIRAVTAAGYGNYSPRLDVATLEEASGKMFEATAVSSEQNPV
Procedure: as §1

Measured: binding result

B1: humanized anti-EphA4 monoclonal antibody (antibody B) (antibody, human IgG2, V domains shown)
VH: QVQLVESGGGVVQPGRSLRLSCAVSGFSLTRFGVHWVRQAPGKGLEWVAVIWRGGSTDYNAAFMSRLTISKDNSKNTVYLQMNSLRAEDTAVYYCAKESLFGVYYDYGYYSMDYWGQGTTVTVSS
VL: DIQMTQSPSSLSASVGDRVTITCRASQEISGYLSWLQQKPGKAPKRLIYAASTLDSGVPSRFSGSRSGTEYTLTISSLQPEDFATYYCLQYASYPLTFGGGTKVEIKR
notes: expressed in Expi293F cells; also called humanized antibody of antibody A; HK2-42 / L1-8
no binding (tested: 10 µg/mL): all assays above
